Assays:
[1] = biological target: ADAMTS-4 (human) (UniProt O75173); assay: cell-based or functional assay
[2] = biological target: ADAMTS-5 (human) (UniProt Q9UNA0); assay: cell-based or functional assay
Sequence of UniProt Q9UNA0 (Q9UNA0 262-622 limits assumed): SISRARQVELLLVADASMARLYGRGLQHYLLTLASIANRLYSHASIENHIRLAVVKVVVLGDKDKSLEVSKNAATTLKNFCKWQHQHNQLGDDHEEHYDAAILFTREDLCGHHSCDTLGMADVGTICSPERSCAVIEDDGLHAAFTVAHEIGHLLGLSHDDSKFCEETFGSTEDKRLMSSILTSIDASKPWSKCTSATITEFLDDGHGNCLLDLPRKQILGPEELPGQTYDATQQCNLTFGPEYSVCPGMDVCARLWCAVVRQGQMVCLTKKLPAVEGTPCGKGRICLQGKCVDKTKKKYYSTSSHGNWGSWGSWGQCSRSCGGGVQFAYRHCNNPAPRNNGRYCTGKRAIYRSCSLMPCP

Sequence of UniProt O75173 (O75173 213-685 limits assumed): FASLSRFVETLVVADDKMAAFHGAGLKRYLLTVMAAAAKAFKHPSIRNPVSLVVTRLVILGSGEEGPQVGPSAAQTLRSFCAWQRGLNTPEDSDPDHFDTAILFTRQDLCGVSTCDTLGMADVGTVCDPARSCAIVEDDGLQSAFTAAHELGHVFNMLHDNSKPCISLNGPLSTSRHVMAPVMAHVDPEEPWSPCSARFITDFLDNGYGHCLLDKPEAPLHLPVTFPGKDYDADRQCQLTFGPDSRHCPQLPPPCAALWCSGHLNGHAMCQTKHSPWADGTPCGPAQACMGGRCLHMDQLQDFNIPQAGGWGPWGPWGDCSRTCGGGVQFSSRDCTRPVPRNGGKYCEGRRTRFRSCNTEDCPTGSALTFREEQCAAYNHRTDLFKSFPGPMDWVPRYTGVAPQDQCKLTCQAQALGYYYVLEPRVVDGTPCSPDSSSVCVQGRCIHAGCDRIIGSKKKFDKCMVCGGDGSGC

IC50 needed to inhibit cartilage catabolism by the protease [1]: 3 µg/mL | IC50 for inhibiting cartilage catabolism of bovine cartilage explants by 500 ng/ml ADAMTS-5 [2]: 7 µg/mL | IC50 needed to inhibit cartilage catabolism by the protease [2]: 7 µg/mL | Maximum inhibition of ADAMTS-5-induced cartilage catabolism [2]: 90%
Substance: purified human A2M (alpha-2-macroglobulin) (from UniProt P01023 24-1474)

Source: patent US20150174221A1
